Measurements as given in article PMC10987677 (The EMBO Journal, 2024).

Biological target: T1, IFT54^CH (IFT54 residues 1-137) (human, UniProt Q8TDR0 1-137)
T1 construct: IFT54 (IFT-B subunit), human, CH domain, residues 1-137; also called IFT54 CH domain; source: baculovirus system, purified (IgG Sepharose, released by TEV protease); not shown: ZZ, N-terminal, cleaved
T1 sequence (looked up): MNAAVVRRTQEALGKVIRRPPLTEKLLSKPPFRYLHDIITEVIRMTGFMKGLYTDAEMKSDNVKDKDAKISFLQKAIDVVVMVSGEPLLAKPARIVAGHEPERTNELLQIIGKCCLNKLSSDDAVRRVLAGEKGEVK
Test: pull-down; ZZ-SNAP-GST-WDR60^355-449 immobilized on IgG Sepharose 6; purified IFT54^CH at 4.6 µM flowed over in wash buffer (30 mM HEPES pH 7.4, 150 mM KCl, 1 mM EGTA, 1 mM DTT, 10% glycerol); TEV elution, SDS-PAGE, Sypro Red
Settings: both partners purified

B1: ZZ-SNAP-GST-WDR60^355-449 (domain or fragment, human, UniProt Q8WVS4 355-449, looked up)
chain: IEKEETDLENARADAYTASCEDDFEDYEDDFEVCDGDDDESSNEPESREKLEELPLAQKKEIQEIQRAINAENERIGELSLKLFQKRGRTEFEKE
notes: WDR60/DYNC2I1, human, residues 355-449 of the N-terminal extension; released by TEV protease afterwards for SDS-PAGE; source: baculovirus system, immobilized on IgG Sepharose 6 resin and washed; not shown: ZZ, N-terminal, kept; SNAP, N-terminal, kept; GST, N-terminal, kept
B1: binds.
